# How the values were obtained:
# [1] = Emission value of secretion-expressed luciferase in COS-7 culture medium, furimazine substrate; format: biochemical; conditions: Experiment 5; furimazine in the concentration recommended by the manufacturer
# Protocol: (§1) • (1) COS-7 cells derived from the kidney of African green monkey were inoculated in a 24-well dish, and on the next day, subconfluency was attained. • (2) 25 μL of Opti-MEM (Thermo Fisher Scientific™), 400 ng (2 μL) of the plasmid, and 1 μL of P3000 (Invitrogen™, Waltham, MA) were mixed. • (3) 25 μL of Opti-MEM and 1 μL of lipofectoamine 3000 (Invitrogen™) were mixed. • (4) (2) and (3) were mixed together, followed by incubation at room temperature for 5 minutes. • (5) The mixture was added to the medium of (1). • (6) 500 μL of Dulbecco's modified Eagle's medium was added, followed by culturing the cells at 37° C. for 1 day and then collecting the medium. The medium contained secretion-expressed luciferase. • (7) To 100 μL of the medium, coelenterazine was added as a substrate at a final concentration of 5 μM, followed by measuring the emission value by using Enspire multi-mode plate reader (PerkinElmer™, Waltham, MA).
# The emission value was measured in the same manner as in Experiment 2 except that furimazine, which was available from Promega™ as a NanoLuc® substrate, was used as a substrate in the concentration recommended by the manufacturer.
# [2] = Stability of protein terminus: Western blot detection of Flag-tag and His-tag in culture supernatant; conditions: secretion-expressed luciferase in COS-7 culture supernatant; Western blotting
# Excerpt: In the same manner as in Experiment 2, the plasmid was transfected into COS-7 cells and culture supernatant was collected. Flag-tag added to the N terminus of each secretion-expressed luciferase and His-tag added to the C terminus thereof were detected by Western blotting (SDS-PAGE, Mini-PROTEAN TGX Gel StainFree 4-15% (Bio-Rad™, Hercules, CA)) (FIG. 17). The antibodies used were Anti 6×Histidine, Monoclonal Antibody (9C11), Peroxidase Conjugated (manufactured by FUJIFILM Wako Pure Chemical Corporation, 1:1000) and Monoclonal ANTI-FLAG (R) M2-Peroxidase (HRP) antibody produced in mouse, clone M2 (manufactured by Sigma-Aldrich™, St. Louis, MO, 1/1000), respectively, and detection was performed with Amesham Imager 680 (Cytiva™, Marlborough, MA).
# [3] = Emission value of secretion-expressed luciferase in COS-7 culture medium, coelenterazine h substrate; format: biochemical; conditions: Experiment 5
# Protocol: as §1
# The emission value was measured in the same manner as in Experiment 2 except that coelenterazine h was used as a substrate in a final concentration of 5 μM. […] The emission value was measured in the same manner as in Experiment 2 except that coelenterazine h was used as a substrate in a final concentration of 25 μM.
# [4] = Emission value of secretion-expressed luciferase in COS-7 culture medium, coelenterazine substrate; format: biochemical; conditions: for emission values (rank order): Experiment 5
# Protocol: as §1
# By the same manner as in Experiment 2, the emission value was measured.
# The emission value was measured in the same manner as in Experiment 2 except that the final concentration of coelenterazine was changed to 0.5 μM. […] The emission value was measured in the same manner as in Experiment 2 except that the final concentration of coelenterazine was changed to 5 μM.
# [5] = GLuc: when secretion expressed from cells; cited from earlier work
# [6] = Measurement of specific activity (enzyme concentrations adjusted by Western blot signal); format: biochemical
# Protocol: The specific activities of NanoLuc®, ALuc30 wt, and picALuc30 were measured, with their enzyme concentrations adjusted based on the Western blot signal intensity obtained in Experiment 6.
# [7] = Thermal stability of picALuc30 purified from Escherichia coli; format: physicochemical; conditions: expressed in Escherichia coli
# [8] = Thermal stability of secretion-expressed picALuc30 (heat treatment, then emission value); format: physicochemical
# Protocol: In the same manner as in Experiment 2, the plasmid was transfected into COS-7 cells and the medium was collected. The culture supernatant containing picALuc30 was incubated for 10 minutes at room temperature (25° C.), 40° C., 50° C., 60° C., 70° C., 80° C., or 90° C., and then the emission value was measured. […] (FIG. 22), indicating a sufficient level of practical utility.
# [9] = Specific activity of picALuc30 expressed in Escherichia coli versus secretion-expressed by COS-7 cells; format: biochemical; conditions: concentrations adjusted by Western blotting
# Protocol: • (1) A DNA sequence coding for picALuc30 was inserted into a pET32 vector to prepare a plasmid. Transformation was carried out into Escherichia coli SHuffle T7 express lysY (New England Biolab). • (2) Escherichia coli from (1) was inoculated into an LB plate (containing […] of ampicillin). • (3) Next day, one colony was taken out, and cultured with shaking overnight at 30° C. in a test tube containing 2 mL of LB medium (containing […] of ampicillin). • (4) 1 mL of (3) was added to 100 mL of LB medium (containing […] of ampicillin), followed by shaking culture at 30° C. in a 500-mL flask until the absorbance OD600 reached about 0.4. • (5) When the absorbance OD600 reached about 0.4, 40 μL of 1-M isopropyl-β-thiogalactopyranoside was added, followed by overnight culture at 16° C. • (6) The bacterial cells were collected, followed by purification of the protein using HisTALON Buffer Set and TALON Metal Affinity Resin (both from Takara Bio Inc.). From 100 mL of the medium, 1.7 mg of picALuc30 was obtained.
Molecule,emission value [1],stability of protein termini (Flag-tag and His-tag detection) [2],emission values (rank order) ([3]; coelenterazine h 5 μM),emission values (rank order) ([3]; coelenterazine h 25 μM),emission values (rank order) ([4]; coelenterazine 0.5 μM),emission values (rank order) ([4]; coelenterazine 5 μM),emission value (known) [5],maximum emission value ([6]; Experiment 7),specific activity ([6]; coelenterazine or coelenterazine h as substrate),activity after heat treatment ([7]; 10-minute incubation at 60° C.),activity remained ([7]; 10-minute incubation at 70° C.),activity remained ([7]; 10-minute incubation at 80° C.),activity remained ([8]; 10-minute incubation at 50° C.),activity remained ([8]; 10-minute incubation at 60° C.),activity remained ([8]; 10-minute incubation at 70° C.),"specific activity, secretion expressed by COS-7 cells versus prepared in Escherichia coli [9]","emission value ([4]; Experiment 2, coelenterazine 5 μM, medium of transfected COS-7 cells)","emission value compared with NanoLuc and TurboLuc ([4]; secretion-expressed, substrate coelenterazine or coelenterazine h in a high concentration (summary of Experiment 5))"
"TurboLuc™: known luciferase, about 16 kDa; SEQ ID NO: 74 (protein, listed as Metrisia longa) MEAEAERGKLPGKKLPLEVLIELEANARKAGCTRGCLICLSKIKCTAKMKKYIPGRCADYGGDKKTGQAGIVGAIVDIPEISGFKEMEPMEQFIAQVDRCADCTTGCLKGLANVKCSDLLKKWLPGRCATFADKIQSEVDNIKGLAGD",high emission values,N terminus was lost,TurboLuc™=ALuc30 wt>>NanoLuc®>picALuc30>GLuc,picALuc30>>NanoLuc®=TurboLuc™=ALuc30 wt>>GLuc,NanoLuc®>>picALuc30>TurboLuc™>ALuc30 wt>GLuc,ALuc30 wt=picALuc30>NanoLuc®>TurboLuc™>GLuc,relatively high,,,,,,,,,,,
"picALuc30: SEQ ID NO: 51; amino acids 54 to 175 of ALuc30 wt, without the N terminus and C terminus; 13 kDa luciferase (protein, picALuc30, amino acids 54 to 175 of ALuc30 wt, without the N terminus and C terminus; 13 kDa luciferase) KLPGKKLPLEVLKELEANAQKAGCTRGCLICLSHIKCTAKMKKWLPGRCESWEGDKETGQGGIGEAIVDIPEIPGFKELAPMEQFIAQVDLCADCTTGCLKGLANVKCSALLKKWLPSRCAG",low as compared to NanoLuc® and TurboLuc™,both termini remaining,TurboLuc™=ALuc30 wt>>NanoLuc®>picALuc30>GLuc,picALuc30>>NanoLuc®=TurboLuc™=ALuc30 wt>>GLuc,NanoLuc®>>picALuc30>TurboLuc™>ALuc30 wt>GLuc,ALuc30 wt=picALuc30>NanoLuc®>TurboLuc™>GLuc,,same maximum emission value as NanoLuc®,the same,lost little activity,≥ 90%,≥ 80%,≥ 80%,≥ 80%,≥ 50%,approximately the same,the same as or higher than that of ALuc30 wt,equal to or higher than NanoLuc® and TurboLuc™

# Source: patent publication US12578329B2, “Reagent kit containing polypeptide for use in detection of intermolecular interactions” (SHIMADZU CORPORATION, priority 2021, dated 2026)
